From US20210024651A1 (published 2021) come the findings set out here.

Test [1] addresses T1, mouse HER3 (mouse, UniProt Q61526 20-641, limits assumed).
T1 construct: also called mouse homologue of HER3; M. musculus HER3
Kind of test: ELISA, plate-coated target, antibody titrated from 10 µg/ml. (In general: In an ELISA, binding on a coated surface is turned into a signal by an enzyme label.)

Test [2] addresses T2, rat HER3 (rat, UniProt Q62799 20-643, limits assumed).
T2 construct: also called rat homologue of HER3; R. norvegicus HER3
The test is described as above.

The target of test [3] is T3, His-tagged FcγRIIIa (V158) (UniProt P08637 17-208).
T3 construct: not shown: His tag
Put plainly: BLI, His-tagged FcγRIIIa (V158) captured on HIS1K tips, antibody in solution. The protocol: Briefly, anti-Penta-HIS (HIS1K) coated biosensor tips (Pall ForteBio, USA) were used to capture His-tagged FcγRIIIa (V158) (270 nM) for 120 s. All measurements were performed at 25° C. with agitation at 1000 rpm. Association kinetic measurements for antigen binding were performed by incubating anti-HER3 antibodies at different concentrations (500 nM to 15.6 nM) for 60 s, followed by a 120 s dissociation time by transferring the biosensors into assay buffer (pH 7.2) containing wells. Sensograms were referenced for buffer effects and then fitted using the Octet QK384 user software (Pall ForteBio, USA). Kinetic responses were subjected to a global fitting using a one site binding model to obtain values for association (Kₒₙ), dissociation (Koff) rate constants and the equilibrium dissociation constant (KD). Only curves that could be reliably fitted with the software (R²>0.90) were included in the analysis.

T2 sequence (Q62799 20-643 limits assumed): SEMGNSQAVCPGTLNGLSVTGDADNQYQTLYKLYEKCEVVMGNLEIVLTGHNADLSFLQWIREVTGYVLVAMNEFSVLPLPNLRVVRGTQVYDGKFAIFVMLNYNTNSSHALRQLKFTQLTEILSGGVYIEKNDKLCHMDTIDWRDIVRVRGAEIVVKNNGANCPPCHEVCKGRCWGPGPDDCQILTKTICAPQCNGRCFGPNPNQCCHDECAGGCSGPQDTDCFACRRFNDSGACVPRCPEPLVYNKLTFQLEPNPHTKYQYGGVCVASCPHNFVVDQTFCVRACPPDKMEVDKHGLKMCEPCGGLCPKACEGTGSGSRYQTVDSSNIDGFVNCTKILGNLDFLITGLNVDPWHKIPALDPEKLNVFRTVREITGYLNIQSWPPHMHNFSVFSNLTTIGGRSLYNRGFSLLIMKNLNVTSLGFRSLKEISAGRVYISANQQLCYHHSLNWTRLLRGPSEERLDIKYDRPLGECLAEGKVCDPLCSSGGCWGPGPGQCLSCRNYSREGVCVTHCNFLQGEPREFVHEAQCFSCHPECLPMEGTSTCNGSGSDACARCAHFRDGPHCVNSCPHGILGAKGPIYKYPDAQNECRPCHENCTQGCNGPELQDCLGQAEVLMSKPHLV
T1 sequence (Q61526 20-641 limits assumed): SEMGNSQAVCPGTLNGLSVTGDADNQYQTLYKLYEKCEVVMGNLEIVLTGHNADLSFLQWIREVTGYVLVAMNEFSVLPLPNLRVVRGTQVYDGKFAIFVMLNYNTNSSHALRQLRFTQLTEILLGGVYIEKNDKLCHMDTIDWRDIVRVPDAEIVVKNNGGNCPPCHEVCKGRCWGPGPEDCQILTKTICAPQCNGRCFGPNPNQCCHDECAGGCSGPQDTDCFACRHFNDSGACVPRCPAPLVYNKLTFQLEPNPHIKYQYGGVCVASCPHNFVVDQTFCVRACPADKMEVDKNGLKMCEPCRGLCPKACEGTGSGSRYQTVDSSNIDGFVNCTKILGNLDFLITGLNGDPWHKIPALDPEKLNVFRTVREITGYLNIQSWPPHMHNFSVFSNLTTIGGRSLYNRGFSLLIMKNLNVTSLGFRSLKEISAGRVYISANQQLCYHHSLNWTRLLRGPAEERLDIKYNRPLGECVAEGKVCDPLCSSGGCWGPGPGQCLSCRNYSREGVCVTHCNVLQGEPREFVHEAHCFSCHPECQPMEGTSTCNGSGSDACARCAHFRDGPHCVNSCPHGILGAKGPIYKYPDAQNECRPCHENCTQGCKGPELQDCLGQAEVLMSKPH

B1: 10D1F.FcA (anti-HER3 clone 10D1_c89 IgG1) (antibody, V domains shown)
VH: QVQLQESGPGLVKPSQTLSLTCTVSGYSITSGYSWHWIRQHPGKGLEWIGSIRYSGGTDYNPSLKSLVTISADTSKNQFSLKLSSVTAADTAVYYCARMTTAPWYPFDYWGQGTTVTVSS
VL: DIQMTQSPSSVSASVGDRVTITCKASQIVGSNVAWYQQKPGKAPEPLIYSASYLYSGVPSRFSGSGSGTDFTLTISSLQPEDFATYYCQQYSSHPLTFGQGTKLEIKR
notes: also called 10D1F.A
Consider B1, for which the binding result in test [1] and in test [2] was “binds” each time.

B2: Fc-modified anti-HER3 antibody clone 10D1 comprising GASD substitutions in CH2 region (antibody, human IgG1, kappa)
heavy: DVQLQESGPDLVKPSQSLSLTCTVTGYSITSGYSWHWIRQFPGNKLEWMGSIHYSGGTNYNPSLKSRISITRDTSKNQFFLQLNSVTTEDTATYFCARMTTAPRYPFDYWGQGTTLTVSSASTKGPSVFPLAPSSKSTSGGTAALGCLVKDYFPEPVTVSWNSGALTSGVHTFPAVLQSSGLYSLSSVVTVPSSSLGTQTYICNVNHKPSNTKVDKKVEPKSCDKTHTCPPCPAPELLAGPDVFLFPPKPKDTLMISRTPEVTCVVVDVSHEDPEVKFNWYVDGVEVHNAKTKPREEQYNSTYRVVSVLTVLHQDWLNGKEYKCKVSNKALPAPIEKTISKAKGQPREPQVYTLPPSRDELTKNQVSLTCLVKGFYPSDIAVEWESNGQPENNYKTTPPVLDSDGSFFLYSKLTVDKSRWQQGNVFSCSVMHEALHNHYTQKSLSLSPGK
light: DIVMTQSQKFMSTSVGDRVSVTCKASQIVGSNVAWYQQKPGQSPKPLIYSASYRYSGVPDRFTASGSGTDFTLTITNVQSEDLAEYFCQQYSSHPLTFGAGTKLELKRTVAAPSVFIFPPSDEQLKSGTASVVCLLNNFYPREAKVQWKVDNALQSGNSQESVTEQDSKDSTYSLSSTLTLSKADYEKHKVYACEVTHQGLSSPVTKSFNRGEC
notes: also called 10D1 GASD variant
B2: in test [3], the binding result is recorded as “binds”.

B3: anti-HER3 clone 10D1 IgG1 (antibody)
heavy: not shown
light: B2 light
notes: Mouse variable regions on human IgG1/kappa constant regions (chimeric); also called 10D1P; 10D1 (parental)
B3: the binding result in test [1], in test [2] and in test [3] was “binds” each time.
